From publication PMC2064741 (The Journal of Cell Biology, 2007)
Like-named read-outs stand apart in the source and are kept apart here.

How the values were obtained:
[1] = target: the molecule itself; experiment: AUC
[2] = target: T1, Capu-FH1FH2 (Drosophila Capu residues 467-1,058) (Drosophila, UniProt Q24120 467-1058); experiment: other fluorescence titration
T1 sequence: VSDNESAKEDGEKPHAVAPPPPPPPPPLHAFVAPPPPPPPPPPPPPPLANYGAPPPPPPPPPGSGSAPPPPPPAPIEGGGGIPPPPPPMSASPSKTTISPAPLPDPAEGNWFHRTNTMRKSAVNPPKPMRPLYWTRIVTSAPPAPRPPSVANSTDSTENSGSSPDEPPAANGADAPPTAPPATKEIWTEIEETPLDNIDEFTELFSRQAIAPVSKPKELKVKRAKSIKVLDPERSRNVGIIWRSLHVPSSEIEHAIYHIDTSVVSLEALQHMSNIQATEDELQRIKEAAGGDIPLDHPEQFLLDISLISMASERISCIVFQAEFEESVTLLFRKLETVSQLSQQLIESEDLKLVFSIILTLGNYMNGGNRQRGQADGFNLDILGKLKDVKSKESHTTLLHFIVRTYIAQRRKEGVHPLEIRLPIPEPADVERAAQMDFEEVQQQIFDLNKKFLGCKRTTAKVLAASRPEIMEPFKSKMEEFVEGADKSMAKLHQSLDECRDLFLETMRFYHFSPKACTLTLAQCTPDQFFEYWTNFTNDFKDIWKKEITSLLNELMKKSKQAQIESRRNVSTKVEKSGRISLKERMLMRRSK

[3] = target: phalloidin-stabilized actin filaments; experiment: co-sedimentation
[4] = target: phalloidin-stabilized actin filaments; experiment: co-sedimentation; remark: listed apart in the source
[5] = target: T1, Capu-FH1FH2 (Drosophila Capu residues …); experiment: co-sedimentation
[6] = target: T2, Capu-FH2 (Drosophila Capu residues 573-1,058) (Drosophila, UniProt Q24120 573-1058); experiment: inhibition of formin-driven pyrene-actin assembly
T2 sequence: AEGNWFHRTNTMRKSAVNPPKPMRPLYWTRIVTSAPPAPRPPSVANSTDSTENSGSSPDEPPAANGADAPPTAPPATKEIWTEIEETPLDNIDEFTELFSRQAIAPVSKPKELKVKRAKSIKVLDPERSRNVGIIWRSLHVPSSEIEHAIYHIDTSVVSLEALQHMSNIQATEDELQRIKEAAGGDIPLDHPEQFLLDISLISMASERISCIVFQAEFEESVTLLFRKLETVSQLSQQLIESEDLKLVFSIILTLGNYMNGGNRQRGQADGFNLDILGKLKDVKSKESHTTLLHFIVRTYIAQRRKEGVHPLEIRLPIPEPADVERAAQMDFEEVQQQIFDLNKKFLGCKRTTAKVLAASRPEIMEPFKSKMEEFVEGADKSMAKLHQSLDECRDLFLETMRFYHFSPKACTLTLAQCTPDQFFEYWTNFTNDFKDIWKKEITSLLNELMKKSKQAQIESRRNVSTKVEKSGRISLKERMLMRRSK

[7] = target: T1, Capu-FH1FH2 (Drosophila Capu residues …); experiment: fluorescence polarisation
[8] = target: T1, Capu-FH1FH2 (Drosophila Capu residues …); experiment: fluorescence polarisation; remark: listed apart in the source
[9] = target: T2, Capu-FH2 (Drosophila Capu residues …); experiment: fluorescence polarisation
[10] = target: T3, Fmn2-FH2 (formin-2 residues 1,124-1,567) ( (printed as m-Fmn2, …, UniProt Q9JL04 1135-1578)); experiment: fluorescence polarisation
[11] = target: T3, Fmn2-FH2 (formin-2 residues 1,124-1,567); experiment: inhibition of formin-driven pyrene-actin assembly

T3 sequence (Q9JL04 1135-1578): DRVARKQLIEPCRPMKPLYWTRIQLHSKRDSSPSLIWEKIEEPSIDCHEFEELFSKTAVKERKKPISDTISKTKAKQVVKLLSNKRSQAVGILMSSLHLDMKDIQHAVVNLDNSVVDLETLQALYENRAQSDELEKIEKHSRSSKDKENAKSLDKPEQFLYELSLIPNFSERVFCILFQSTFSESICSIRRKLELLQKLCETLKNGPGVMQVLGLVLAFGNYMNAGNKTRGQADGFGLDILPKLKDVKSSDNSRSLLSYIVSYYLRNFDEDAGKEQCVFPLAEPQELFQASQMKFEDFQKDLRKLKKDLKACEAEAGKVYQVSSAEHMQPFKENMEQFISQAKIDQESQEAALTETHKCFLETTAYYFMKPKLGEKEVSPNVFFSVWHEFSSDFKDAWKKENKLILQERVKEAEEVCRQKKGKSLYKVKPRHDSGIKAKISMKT

B1: AlexaFluor488-labeled Capu-FH1FH2 with C-terminal Lys-Cys-Lys (domain or fragment)
chain: VSDNESAKEDGEKPHAVAPPPPPPPPPLHAFVAPPPPPPPPPPPPPPLANYGAPPPPPPPPPGSGSAPPPPPPAPIEGGGGIPPPPPPMSASPSKTTISPAPLPDPAEGNWFHRTNTMRKSAVNPPKPMRPLYWTRIVTSAPPAPRPPSVANSTDSTENSGSSPDEPPAANGADAPPTAPPATKEIWTEIEETPLDNIDEFTELFSRQAIAPVSKPKELKVKRAKSIKVLDPERSRNVGIIWRSLHVPSSEIEHAIYHIDTSVVSLEALQHMSNIQATEDELQRIKEAAGGDIPLDHPEQFLLDISLISMASERISCIVFQAEFEESVTLLFRKLETVSQLSQQLIESEDLKLVFSIILTLGNYMNGGNRQRGQADGFNLDILGKLKDVKSKESHTTLLHFIVRTYIAQRRKEGVHPLEIRLPIPEPADVERAAQMDFEEVQQQIFDLNKKFLGCKRTTAKVLAASRPEIMEPFKSKMEEFVEGADKSMAKLHQSLDECRDLFLETMRFYHFSPKACTLTLAQCTPDQFFEYWTNFTNDFKDIWKKEITSLLNELMKKSKQAQIESRRNVSTKVEKSGRISLKERMLMRRSKKCK
modifications: AlexaFluor488-maleimide on the cysteine of the C-terminal Lys-Cys-Lys (~100% labeled)
Question: With B1 as the binder, how does the “stoichiometry N” value [1] read?
Answer: The value was 2.

B2: AlexaFluor488-labeled WH2 cluster, KCK-WH2(C459S) (Drosophila Spir residues 366-482) (domain or fragment)
chain: KCKWARFWVQVIDELRRGVRLKKSNHERTPIEYELTPYEILMGDIRAKKYQLRKVMVNGDIPPRVKKDAHAMILEFIRSRPPLKKASDRQLGPPRMSEPSPREQLMESIRKGKELKQITP
modifications: AlexaFluor488-maleimide on the cysteine of the N-terminal Lys-Cys-Lys (~100% labeled)
Question: B2 was tested. Which Kd [2] did it give?
Answer: The Kd was 2400 ± 900 nM.

B3: Capu-FH1FH2 (Drosophila Capu residues 467-1,058) (domain or fragment)
chain: VSDNESAKEDGEKPHAVAPPPPPPPPPLHAFVAPPPPPPPPPPPPPPLANYGAPPPPPPPPPGSGSAPPPPPPAPIEGGGGIPPPPPPMSASPSKTTISPAPLPDPAEGNWFHRTNTMRKSAVNPPKPMRPLYWTRIVTSAPPAPRPPSVANSTDSTENSGSSPDEPPAANGADAPPTAPPATKEIWTEIEETPLDNIDEFTELFSRQAIAPVSKPKELKVKRAKSIKVLDPERSRNVGIIWRSLHVPSSEIEHAIYHIDTSVVSLEALQHMSNIQATEDELQRIKEAAGGDIPLDHPEQFLLDISLISMASERISCIVFQAEFEESVTLLFRKLETVSQLSQQLIESEDLKLVFSIILTLGNYMNGGNRQRGQADGFNLDILGKLKDVKSKESHTTLLHFIVRTYIAQRRKEGVHPLEIRLPIPEPADVERAAQMDFEEVQQQIFDLNKKFLGCKRTTAKVLAASRPEIMEPFKSKMEEFVEGADKSMAKLHQSLDECRDLFLETMRFYHFSPKACTLTLAQCTPDQFFEYWTNFTNDFKDIWKKEITSLLNELMKKSKQAQIESRRNVSTKVEKSGRISLKERMLMRRSK
Question: How did the Kd [3] turn out when B3 was run?
Answer: Its Kd is 7 nM.

Question: And the Kd [4]?
Answer: Its Kd is 6 nM.

B4: NTSpir (Drosophila Spir residues 1-520) (domain or fragment)
chain: MTEHQAEEQADTPPTKVKATPTPTPSGKFKDAKEDAFLSTSPDSANGDAQHKLPADQLAMSSSAHPQQAGQARPLILQAFHRCSSPEQCVTLHDILDSFKAPLSEDQAWALIHQFAGLYHQVAVQAHTCAADYEAALPTGFELHFHRDGSVHFSGPDQLTPKEQLQQEQIPLPPQHDVIVDQPDHSASSSGDSSVINRAFDNSNHHHHHQHHHPPLVVSHRKIISELAEIVYTALDYNLPEDEECQVSQELENLFNFMTADETDDDCIDEGIDEGDKRWDDESEEERNDTKELEHIIETCRNHIKTTLPENHYRAVCRALVTETIELRVFLQQVLNNEAGAEKLIKASESSATTQQELAKLGFNDWARFWVQVIDELRRGVRLKKSNHERTPIEYELTPYEILMGDIRAKKYQLRKVMVNGDIPPRVKKDAHAMILEFIRSRPPLKKASDRQLGPPRMCEPSPREQLMESIRKGKELKQITPPEAPTLRERVLPSANSTLSRSRQRLIKVDFSKFQDDDL
Question: Does B4 bind [5]?
Answer: Result: binds

B5: KIND (Drosophila Spir residues 1-327), unlabeled (domain or fragment)
chain: MTEHQAEEQADTPPTKVKATPTPTPSGKFKDAKEDAFLSTSPDSANGDAQHKLPADQLAMSSSAHPQQAGQARPLILQAFHRCSSPEQCVTLHDILDSFKAPLSEDQAWALIHQFAGLYHQVAVQAHTCAADYEAALPTGFELHFHRDGSVHFSGPDQLTPKEQLQQEQIPLPPQHDVIVDQPDHSASSSGDSSVINRAFDNSNHHHHHQHHHPPLVVSHRKIISELAEIVYTALDYNLPEDEECQVSQELENLFNFMTADETDDDCIDEGIDEGDKRWDDESEEERNDTKELEHIIETCRNHIKTTLPENHYRAVCRALVTETIEL
Question: What does the source list for B5?
Answer: Ki [6]: 5 ± 1 nM; Kd [7]: 5 ± 3 nM

B6: AlexaFluor488-labeled KIND (Drosophila Spir residues 1-327) (domain or fragment)
chain: MTEHQAEEQADTPPTKVKATPTPTPSGKFKDAKEDAFLSTSPDSANGDAQHKLPADQLAMSSSAHPQQAGQARPLILQAFHRCSSPEQCVTLHDILDSFKAPLSEDQAWALIHQFAGLYHQVAVQAHTCAADYEAALPTGFELHFHRDGSVHFSGPDQLTPKEQLQQEQIPLPPQHDVIVDQPDHSASSSGDSSVINRAFDNSNHHHHHQHHHPPLVVSHRKIISELAEIVYTALDYNLPEDEECQVSQELENLFNFMTADETDDDCIDEGIDEGDKRWDDESEEERNDTKELEHIIETCRNHIKTTLPENHYRAVCRALVTETIEL
Question: What does the source list for B6?
Answer: Kd [8]: 1 ± 2 nM; Kd [9]: 9 ± 6 nM

B7: AlexaFluor488-labeled Spir-1–KIND (human Spir-1 residues 2-271) (domain or fragment)
chain: AQAAGPAGGGEPRTEAVGGEGPREPGAAGGAAGGSRDALSLEEILRLYNQPINEEQAWAVCYQCCGSLRAAARRRQPRHRVRSAAQIRVWRDGAVTLAPAADDAGEPPPVAGKLGYSQCMETEVIESLGIIIYKALDYGLKENEERELSPPLEQLIDHMANTVEADGSNDEGYEAAEEGLGDEDEKRKISAIRSYRDVMKLCAAHLPTESDAPNHYQAVCRALFAETMELHTFLTKIKSAKENLKKIQEMEKSDESSTDLEELKNADWAR
Question: B7 was tested. Which Kd [10] did it give?
Answer: Its Kd is 300 ± 60 nM.

B8: Spir-1–KIND (human Spir-1 residues 2-271), unlabeled (domain or fragment)
chain: AQAAGPAGGGEPRTEAVGGEGPREPGAAGGAAGGSRDALSLEEILRLYNQPINEEQAWAVCYQCCGSLRAAARRRQPRHRVRSAAQIRVWRDGAVTLAPAADDAGEPPPVAGKLGYSQCMETEVIESLGIIIYKALDYGLKENEERELSPPLEQLIDHMANTVEADGSNDEGYEAAEEGLGDEDEKRKISAIRSYRDVMKLCAAHLPTESDAPNHYQAVCRALFAETMELHTFLTKIKSAKENLKKIQEMEKSDESSTDLEELKNADWAR
Question: With B8 as the binder, how does the Ki [11] read?
Answer: The Ki was 190 ± 40 nM.
